Biological target: SFB-β-catenin (UniProt P35222)
Assay: pull-down; HEK293T cells co-transfected with MYC-LEF1, SFB-β-catenin and OTUD7B-V5 or GFP-V5, treated with 20 mM lithium chloride for 24 h; cytoplasmic and nuclear lysates pulled down with S-protein beads; immunoblot, bands quantified with ImageJ

Chain of UniProt P35222 (P35222 whole entry): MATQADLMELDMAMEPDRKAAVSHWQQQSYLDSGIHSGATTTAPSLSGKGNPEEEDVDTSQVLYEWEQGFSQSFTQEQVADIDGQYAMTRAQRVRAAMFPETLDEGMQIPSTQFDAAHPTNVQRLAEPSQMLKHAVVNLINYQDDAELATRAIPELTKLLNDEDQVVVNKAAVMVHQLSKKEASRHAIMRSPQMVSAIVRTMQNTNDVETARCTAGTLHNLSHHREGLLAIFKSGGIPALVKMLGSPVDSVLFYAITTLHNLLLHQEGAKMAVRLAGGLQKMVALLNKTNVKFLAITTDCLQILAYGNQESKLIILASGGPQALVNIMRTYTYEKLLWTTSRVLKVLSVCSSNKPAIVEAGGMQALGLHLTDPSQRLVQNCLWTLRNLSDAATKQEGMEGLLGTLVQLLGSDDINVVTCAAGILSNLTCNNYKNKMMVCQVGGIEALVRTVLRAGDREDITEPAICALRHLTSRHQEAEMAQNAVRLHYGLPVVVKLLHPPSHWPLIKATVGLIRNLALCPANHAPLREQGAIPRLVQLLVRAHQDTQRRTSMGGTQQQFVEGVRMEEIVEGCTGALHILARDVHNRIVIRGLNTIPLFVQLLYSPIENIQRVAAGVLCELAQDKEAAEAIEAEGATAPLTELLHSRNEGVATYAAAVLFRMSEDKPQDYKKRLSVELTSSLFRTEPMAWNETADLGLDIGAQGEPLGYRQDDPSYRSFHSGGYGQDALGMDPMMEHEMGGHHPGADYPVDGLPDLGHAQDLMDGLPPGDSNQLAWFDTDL

fold increase of β-catenin-bound LEF1 in the nucleus with OTUD7B-V5 against GFP-V5: 4.82 fold
Substance: MYC-LEF1 (Lymphoid enhancer-binding factor 1), full length (natural protein)

Source: PMC10295924
